Reference: US5635597A (Affymax Technologies, N.V., priority 1994, dated 1997)
Where a SMILES comes first, the peptide text is derived from it.

Tests used:
[1] = molecular target: T1, IL-2Rβ (Homo sapiens, UniProt P14784); assay: Colony lift procedure with tagged IL-2 receptors; format: binding
T1 construct: tag (kind not specified; detected enzymatically or on X-ray film)
T1 sequence (P14784 27-240 limits assumed): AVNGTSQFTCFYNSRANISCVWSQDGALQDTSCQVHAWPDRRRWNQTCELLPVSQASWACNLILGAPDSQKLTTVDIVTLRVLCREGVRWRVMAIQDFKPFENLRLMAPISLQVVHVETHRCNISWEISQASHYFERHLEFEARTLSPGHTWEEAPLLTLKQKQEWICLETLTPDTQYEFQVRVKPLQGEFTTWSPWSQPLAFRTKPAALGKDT
From the text: Peptides specific for the IL-2Rα, β and γ subunits were also discovered using a "colony lift" procedure, wherein cells were infected with DNA encoding for random amino acid sequences as described above. The phage was then allowed to grow on arabinose media to induce expression of the encoded peptides. […] The filters were washed and dried, and the tagged colonies were detected enzymatically, or by exposure to X-ray film, to identify those receptors which bound to the immobilized peptide-expressing phage particles.
Sequences which bound to IL-2Rβ have the general sequence RDCSX81AX82 LGELC, wherein X81 is V, E or D; and X82 is V or A. Preferred sequences are […], […] (SEQ ID NO: ), and […] (SEQ ID NO: ).

[2] = molecular target: T2, β-subunit (Homo sapiens, UniProt P14784); assay: Blocking of IL-2 binding to the β-subunit
T2 construct: was produced in recombinant host cells in a truncated form; made in house; host or cells: recombinant host cells (baculovirus system or PIG-tailed CHO cells named as options)
T2 sequence (P14784 27-240 limits assumed): T1 sequence (P14784 27-240 limits assumed)

[3] = molecular target: T3, αβ (Homo sapiens, UniProt P01589+P14784); assay: Binding to αβ subunits
T3 construct: was produced in recombinant host cells in a truncated form; made in house; host or cells: recombinant host cells (baculovirus system or PIG-tailed CHO cells named as options)
T3 sequence (P01589 22-240 limits assumed): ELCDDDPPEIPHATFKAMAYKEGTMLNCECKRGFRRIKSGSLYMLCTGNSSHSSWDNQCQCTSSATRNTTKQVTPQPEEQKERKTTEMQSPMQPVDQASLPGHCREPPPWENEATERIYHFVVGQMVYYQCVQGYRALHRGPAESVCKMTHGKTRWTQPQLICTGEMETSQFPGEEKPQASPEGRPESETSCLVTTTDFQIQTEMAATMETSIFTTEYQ
T3 sequence (P14784 27-240 limits assumed): T1 sequence (P14784 27-240 limits assumed)
Description: (§1) After several rounds of affinity enrichment, the phage or plasmids and accompanying peptides were examined by ELISA to determine if the peptides bind specifically to the receptor. This assay was carried out in a manner similar to the procedures used in the affinity enrichment process, except that after removing unbound phage (or plasmids), the wells were typically treated with rabbit anti-phage antibody, then with alkaline phosphatase (AP)-conjugated goat anti-rabbit antibody, or with anti-LacI-AP, and then the amount of alkaline phosphatase in each well was determined by standard methods. By comparing test wells with control wells containing an unrelated receptor, one can determine whether a peptide binds to IL-2Rα (or IL-2Rβ, γ, αβ, or βγ) specifically. Peptides found to bind specifically to the receptor were then synthesized as the free peptide (no phage) and tested for binding against (1) immobilized soluble receptor, (2) receptor expressed on the surface of cells, (3) the heterotrimer form of the receptor (i.e., IL-2Rαβγ) expressed on the surface of cells and (4) the two heterodimers IL-2Rαβ and IL-2Rβγ.

[4] = molecular target: T3, αβ; assay: Competition against phage-borne […], αβ heterodimer; format: binding; conditions: free peptide
[5] = molecular target: T4, immobilized IL-2Rβ (Homo sapiens, UniProt P14784); assay: pVIII 12-mer phage screen against immobilized IL-2Rβ; format: binding; conditions: pVIII-bound 12-mers
T4 construct: was produced in recombinant host cells in a truncated form; made in house; host or cells: recombinant host cells (baculovirus system or PIG-tailed CHO cells named as options)
T4 sequence (P14784 27-240 limits assumed): T1 sequence (P14784 27-240 limits assumed)
From the text: (§2) In the systems employed, the random peptides were presented either on the surface of a phage particle, as part of a fusion protein comprising either the pIII or the pVIII coat protein of a phage fd derivative (peptides on phage), or as a fusion protein with LacI bound to a plasmid (peptides on plasmids). The phage or plasmids, including the DNA encoding the peptides, were identified and isolated by an affinity enrichment process using immobilized IL-2Rα, IL-2Rβ, IL-2Rγ and the αβ heterodimer. The affinity enrichment process, sometimes called "panning", involves multiple rounds of incubating the phage or plasmids with immobilized receptor, collecting the phage or plasmids that bind to the receptor (along with the accompanying DNA), and producing more of the phage or plasmids (along with accompanying LacI-peptide fusion protein) collected.
as §1

[6] = molecular target: T5, βγ (Homo sapiens, UniProt P14784+P31785); assay: Competition against phage-borne […], βγ heterodimer; format: binding; conditions: free peptide
T5 construct: was produced in recombinant host cells in a truncated form; made in house; host or cells: recombinant host cells (not fixed)
T5 sequence (P14784 27-240 limits assumed): T1 sequence (P14784 27-240 limits assumed)
T5 sequence (P31785 23-262 limits assumed): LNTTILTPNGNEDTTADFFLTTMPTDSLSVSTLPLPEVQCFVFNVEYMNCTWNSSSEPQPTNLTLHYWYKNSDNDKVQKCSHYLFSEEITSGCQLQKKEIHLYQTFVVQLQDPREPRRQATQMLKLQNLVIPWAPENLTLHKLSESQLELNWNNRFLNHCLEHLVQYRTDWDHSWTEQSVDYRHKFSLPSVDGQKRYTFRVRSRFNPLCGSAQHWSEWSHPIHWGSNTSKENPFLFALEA

[7] = molecular target: T5, βγ; assay: Binding to βγ subunits
Description: as §1

[8] = molecular target: T6, IL-2Rα (Homo sapiens, UniProt P01589); assay: Phage screen of αβ heterodimer in presence of β-specific peptides: specific binding to IL-2Rα
T6 construct: was produced in recombinant host cells in a truncated form; made in house; host or cells: recombinant host cells (baculovirus system or PIG-tailed CHO cells named as options)
T6 sequence (P01589 22-240 limits assumed): T3 sequence (P01589 22-240 limits assumed)
Description: as §1
The αβ heterodimer was screened in the presence of each of the following peptides, […] (SEQ ID NO:65), […] (SEQ ID NO:66), […] (SEQ ID NO:67), […] (SEQ ID NO:68) and […] (SEQ ID NO:69) under standard conditions. […]

[9] = molecular target: T7, immobilized IL-2Rα (Homo sapiens, UniProt P01589); assay: Blocking of IL-2 binding to immobilized IL-2Rα
T7 construct: was produced in recombinant host cells in a truncated form; made in house; host or cells: recombinant host cells (baculovirus system or PIG-tailed CHO cells named as options)
T7 sequence (P01589 22-240 limits assumed): T3 sequence (P01589 22-240 limits assumed)

[10] = molecular target: T8, IL-2Rαβ heterodimer (Homo sapiens, UniProt P01589+P14784); assay: pVIII 10-mer phage screen / ELISA against IL-2Rαβ heterodimer; format: binding; conditions: pVIII-bound 10-mers on phage
T8 construct: was produced in recombinant host cells in a truncated form; made in house; host or cells: recombinant host cells (baculovirus system or PIG-tailed CHO cells named as options)
T8 sequence (P01589 22-240 limits assumed): T3 sequence (P01589 22-240 limits assumed)
T8 sequence (P14784 27-240 limits assumed): T1 sequence (P14784 27-240 limits assumed)
From the text: as §2, §1
The immobilized receptor used in the affinity enrichment and ELISA procedures was produced in recombinant host cells in a truncated form. This truncated receptor molecule can be produced in a variety of different forms and host cells. One useful form of receptor is constructed by expressing the protein as a soluble protein in baculovirus transformed host cells using standard methods; another useful form is constructed with a signal peptide for protein secretion and for glycophospholipid membrane anchor attachment. This form of anchor attachment is called "PIG-tailing;"see Caras and Weddell, 3 Mar. 1989, Science 243:1196-1198, and Lin et al., 10 Aug. 1990, Science 249:677-679, each of which is incorporated herein by reference. Using the PIG-tailing system, one can cleave the receptor from the surface of the cells expressing receptor (e.g., transformed Chinese hamster ovary (CHO) cells selected for high level expression of receptor with a cell sorter) with phospholipase C. The cleaved receptor still comprises a carboxy terminal sequence of amino acids, called the "HPAP tail", from the signal for membrane attachment and can be immobilized without further purification.
The recombinant receptor protein was immobilized by coating the wells of microtiter plates with an anti-HPAP tail antibody, blocking with bovine serum albumin (BSA) in PBS, and then binding recombinant, truncated receptor to the antibody. Using this procedure, one should perform the immobilization reaction in varying concentrations of the receptor to determine the optimum amount for a given preparation, because different preparations of recombinant protein often contain different amounts of the desired protein. […] Otherwise, unblocked antibody can bind undesired phage during the affinity enrichment procedure. […]

[11] = molecular target: T9, βγ-subunit (Homo sapiens, UniProt P14784+P31785); assay: Phage-ELISA competition with phage bearing peptides, βγ-subunit; format: binding; conditions: phage-ELISA assay
T9 construct: was produced in recombinant host cells in a truncated form; made in house; host or cells: recombinant host cells (not fixed)
T9 sequence (P14784 27-240 limits assumed): T1 sequence (P14784 27-240 limits assumed)
T9 sequence (P31785 23-262 limits assumed): T5 sequence (P31785 23-262 limits assumed)
From the text: (§3) After several rounds of affinity enrichment, the phage or plasmids and accompanying peptides were examined by ELISA to determine if the peptides bind specifically to the receptor. […] By comparing test wells with control wells containing an unrelated receptor, one can determine whether a peptide binds to IL-2Rα (or IL-2Rβ, γ, αβ, or βγ) specifically.
Random pVIII 10-mer and 11-mer libraries were also screened against immobilized IL-2Rγ monomer in a phage ELISA assay at high receptor density.

[12] = molecular target: T9, βγ-subunit; assay: Binding to βγ-subunit and competition with radiolabelled ligand
From the text: (§4) Random pVIII 10-mer and 11-mer libraries were also screened against immobilized IL-2Rγ monomer in a phage ELISA assay at high receptor density. […] These peptides also bound to the βγ-subunit and competed with radiolabelled ligand.

[13] = molecular target: T10, immobilized IL-2Rγ monomer (Homo sapiens, UniProt P31785); assay: Phage ELISA against immobilized IL-2Rγ monomer; format: binding; conditions: high receptor density
T10 construct: was produced in recombinant host cells in a truncated form; made in house; host or cells: recombinant host cells (not fixed)
T10 sequence (P31785 23-262 limits assumed): T5 sequence (P31785 23-262 limits assumed)
Description: as §1, §4

[14] = molecular target: T11, α subunit (Homo sapiens, UniProt P01589); assay: Phage ELISA competition against phage-bearing […]; format: binding; conditions: phage ELISA format against phage-bearing FVRCTASGCV
T11 construct: was produced in recombinant host cells in a truncated form; made in house; host or cells: recombinant host cells (baculovirus system or PIG-tailed CHO cells named as options)
T11 sequence (P01589 22-240 limits assumed): T3 sequence (P01589 22-240 limits assumed)
From the text: as §3

RDCSVAVLGELC
binding to IL-2Rβ [1]: bound

CSCC[C@H](N)C(=O)N[C@@H](CC(=O)O)C(=O)N[C@@H](CS)C(=O)N[C@@H](CO)C(=O)N[C@@H](CCC(=O)O)C(=O)N[C@@H](C)C(=O)N[C@H](C(=O)N[C@@H](CC(C)C)C(=O)NCC(=O)N[C@@H](CCC(=O)O)C(=O)N[C@@H](CC(C)C)C(=O)N[C@@H](CS)C(=O)O)C(C)C (H-MDCSEAVLGELC-OH; N-terminus and C-terminus assumed)
blocking IL-2 binding to the β-subunit [2]: capable of blocking IL-2 binding
binding to αβ subunits [3]: able to bind
competition against phage-born MDCSEAVLGELC for binding [4]: competitive
subunit specificity of clones [5]: β-specific
competition against phage-born MDCSEAVLGELC for binding [6]: competitive
binding to βγ subunits [7]: able to bind

HCLDMGCTFPVW
subunit specificity of clones [5]: β-specific

EVICGTDGCW
specific binding to IL-2Rα [8]: bound specifically
concentration at which IL-2 binding to immobilized IL-2Rα was blocked [9]: 330 µM

ARYGDVGSLV
binding to the αβ heterodimer [10]: bound
subunit specificity [10]: specific for the β subunit

RDCSEARLGELC
binding to IL-2Rβ [1]: bound

RDCSDAVLEGLC
binding to IL-2Rβ [1]: bound

RACRVMPCLPDL
subunit specificity of clones [5]: β-specific

SGCGRELDWC
binding to the αβ heterodimer [10]: bound
subunit specificity [10]: specific for the β subunit

SVRCSASGCV
specific binding to IL-2Rα [8]: bound specifically
concentration at which IL-2 binding to immobilized IL-2Rα was blocked [9]: 110 µM

RYGEVGDLLP
binding to the αβ heterodimer [10]: bound
subunit specificity [10]: specific for the β subunit

CGTQEACFGLL
competition with phage bearing peptides in binding to the βγ-subunit [11]: compete
binding to the βγ-subunit [12]: bound
competition with radiolabelled ligand ([12]; βγ-subunit): competed
specific binding to IL-2Rγ [13]: bind to that subunit specifically

WDGPGLGEFF
binding to the αβ heterodimer [10]: bound
subunit specificity [10]: specific for the β subunit

RWGDVGDMVV
binding to the αβ heterodimer [10]: bound
subunit specificity [10]: specific for the β subunit

FVRCTASGCV
competition for binding with respect to the α subunit [14]: compete for binding

ARSDYGLGAIWP
subunit specificity of clones [5]: β-specific
